Target: T1, B7H3 on Weri-RB1 cells (UniProt Q5ZPR3)
T1 sequence: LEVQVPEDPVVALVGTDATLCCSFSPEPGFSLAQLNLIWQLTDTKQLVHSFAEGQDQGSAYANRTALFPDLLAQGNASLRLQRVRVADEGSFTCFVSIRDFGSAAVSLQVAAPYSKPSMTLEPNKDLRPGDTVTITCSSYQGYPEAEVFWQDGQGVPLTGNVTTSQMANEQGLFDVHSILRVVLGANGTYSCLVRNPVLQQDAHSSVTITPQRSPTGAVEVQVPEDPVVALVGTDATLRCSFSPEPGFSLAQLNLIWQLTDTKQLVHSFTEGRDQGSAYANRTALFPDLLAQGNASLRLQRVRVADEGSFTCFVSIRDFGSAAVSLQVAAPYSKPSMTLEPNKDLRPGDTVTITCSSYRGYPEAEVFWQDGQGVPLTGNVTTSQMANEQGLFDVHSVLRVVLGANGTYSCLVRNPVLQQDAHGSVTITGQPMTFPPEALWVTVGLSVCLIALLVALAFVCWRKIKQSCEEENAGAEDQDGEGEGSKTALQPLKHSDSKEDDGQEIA
Test: flow cytometry
Settings: FITC aptamer, ABB: AWB (composition not given) + 0.1 mg/ml yeast tRNA, 0.1 mg/ml salmon sperm DNA, 5% FBS, 1 mg/ml BSA, 60 min, 0-500 nM …, flow binding assay on ice, d

| Sequence | Kd [nM] |
| --- | --- |
| TAGGGAAGAGAAGGACATATGATACAGCACGGTATGACGAGTCCATTGTGTGTGCAGCTCGCTAATTGACTAGTACATGACCACTT [VRF-HS_B7H3-01] | 32.1 |
| TAGGGAAGAGAAGGACATATGATATAAGTGACACATCAATCTCATGCGGATGAACCAGTGCGTTTGACTAGTACATGACCACTT [VRF-HS_B7H3-03] | 46.6 |
| TAGGGAAGAGAAGGACATATGATCGCCCCTCTTTTCGATTTCAAGCTCCTAACCCACACCTCTTTGACTAGTACATGACCACTT [VRF-HS_B7H3-02] | 47.2 |
| TAGGGAAGAGAAGGACATATGATTGAGAAGTCACGCCACTTACCTGCGCTCAAAACCTCAGAATTGACTAGTACATGACCACTT [VRF-HS_B7H3-05] | 50.6 |
| TAGGGAAGAGAAGGACATATGATTGCCCCTGACACTTACACGCCACTATCAAGGCACACGCCATTGACTAGTACATGACCACTT [VRF-HS_B7H3-04] | 51.4 |

Reference: PMC11169341
